Paper PMC5678105, “Engineering DNA Backbone Interactions Results in TALE Scaffolds with Enhanced 5-Methylcytosine Selectivity”

B1: 9a_26 5mC (dsDNA)
DNA 1: GGCCAGCCAGTCAGCCGAAGGCTCCATGCTGCTCCCCGCCGCCGGC
DNA 2: GCCGGCGGCGGGGAGCAGCATGGAGCCTTCGGCTGACTGGCTGGCC
modifications: 5mC at strand 1 nt 16 (site position 5, T = 0)
B2: 9a_26 C (dsDNA)
DNA 1: B1 DNA 1
DNA 2: B1 DNA 2

Legend:
GFP-TALE_9a_26 WT [1] = molecular target: T1, GFP-TALE_9a_26 WT (Xanthomonas axonopodis scaffold …); experiment: EMSA; 5mC vs C DNA; EMSA: 20 mM Tris pH 8, 50 mM NaCl, 5 mM MgCl2, 5% glycerol; 0.1 pmol TALE + 0.5 pmol duplex in 10 uL; RT 30 min then ice 30 min; gel 0.5x TAE 4 C; GFP readout; conditions: protein: recombinant; tags: N-terminal GFP; C-terminal His6; blunt
GFP-TALE_9a_26 WT [2] = molecular target: T1, GFP-TALE_9a_26 WT; experiment: EMSA; EMSA: 20 mM Tris pH 8, 50 mM NaCl, 5 mM MgCl2, 5% glycerol; 0.1 pmol TALE + 0.5 pmol duplex in 10 uL; RT 30 min then ice 30 min; gel 0.5x TAE 4 C; GFP readout; conditions: protein: recombinant; tags: N-terminal GFP; C-terminal His6; blunt

Row | Binder | binding signal (GFP-TALE_9a_26 WT [1]) | binding result (GFP-TALE_9a_26 WT [2])
1 | B1 | 2 fold C over 5mC selectivity | 
2 | B2 |  | binds
